Experimental data as given in the supplement of paper PMC9170038.

System: MS2 coat protein
Experiment: apparent KD of MS2 coat protein; designed switch direction (-1 OFF switch, 1 ON switch): -1; higher = weaker reporter binding
Method in brief: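 The buffer was Tris-HCl pH 7.5 with KCl, MgCl2, BSA, DTT, tRNA and Tween-20. In it, SNAP-549-labelled MS2 coat protein was titrated in doubling steps from 0.7 or 1.5 nM to 3 µM over chip-bound RNA switches transcribed by stalled E. coli RNA polymerase on Illumina chips. Apparent KD is the per-design median over clusters of curve fits to normalised fluorescence.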

[1] = input ligand: microRNA oligo, concentration not stated
[2] = Eterna round: R95, input ligand: microRNA oligo, concentration not stated
[3] = Eterna round: R95, input ligand: FMN 200 uM
[4] = Eterna round: R95, input ligand: none

Sequence	apparent KD of MS2 coat protein (input ligand: FMN 200 uM) [nM]	apparent KD of MS2 coat protein (input ligand: none) [nM]	apparent KD of MS2 coat protein [2] [nM]	other results
CCGGGCCCGGGAGGAUAUACAUGAGGAUCACCCAUGUGGGCCCGGGCCCGCGGGCCCGGGCCCGUGUAGAAGGCCCGGGCCCGG [-64.8, -63.2 kcal, A 14%] (Eterna round: R96, puzzle: Exclusion NG 2)	27.2	19.9	–	apparent KD of MS2 coat protein [1]: 5.13 nM
CCGGUGUGAGGAUAUCGUGGCUUGCAGGAAACGCUAAGUCGCGAGAAGGCACAUGAGGAUCACCCAUGUGUAUC [Eternabot (L2) Solution 54] (Eterna round: R97, puzzle: Exclusion 4)	62.8	24.7	–	–
CCGUCGGUAGGAUAUGCUAUGCAUGUCGGCGCUAUUUGAGGACAUGAGGAUCACCCAUGUAGAAGGGCCGAGGU [Eternabot (L1) Solution 55] (Eterna round: R97, puzzle: Exclusion 2)	22.7	15.7	–	–
CCGUUGCUAGGAUAUACAUGAGGAUCACCCAUGUUUGAUCCAGCGAGUCAAUCCGCUUGUAGAAGGAGUUACAC [EX3 C.9] (Eterna round: R97, puzzle: Exclusion 3)	25.3	26.4	–	–
CCUAUGUGAGGAUAUCACUGGUCUUCUCACUGGAUGACCAGUGAGAAGGCACAUGAGGAUCACCCAUGUCGGUG [Ex4 - 3 - 50] (puzzle: Exclusion 4)	–	–	312	–
CCUCAGUAAGGAUAUCAGCUUAAGGAGGUGGUAAAGAGAGCUGAGAAGGUACAUGAGGAUCACCCAUGUUAAAA [Zatite] (Eterna round: R96, puzzle: Exclusion 4)	193	57.2	–	apparent KD of MS2 coat protein [1]: 47.1 nM
CCUCAGUAAGGAUAUCAGCUUAAGGAGGUGGUAAAGAGAGCUGAGAAGGUACAUGAGGAUCACCCAUGUUAAAA [Zatite] (puzzle: Exclusion 4)	–	–	44.9	apparent KD of MS2 coat protein [3]: 64.4 nM; apparent KD of MS2 coat protein [4]: 50.2 nM
CCUCAGUCACAGGAUAUGCUCAUCUAAUGAUGAGCAGAAGGGUGAACAUGAGGAUCACCCAUGUUUACCAGGGU [Omei Ex6 E5] (Eterna round: R97, puzzle: Exclusion 6)	36	161	–	–
CCUCAGUGAGGAUAUGCUGCCGCCGUGAAUACACACCGCGCGUAGAAGGCACAUGAGGAUCACCCAUGUGAAGG [Eternabot (Original) Solution 9] (Eterna round: R97, puzzle: Exclusion 4)	354	97.7	–	–
CCUCAUAGUCAGGAUAUCAGCGCGUUCGGCAAAUGAGAAGGGACCACAUGAGGAUCACCCAUGUAAAACCAAAA [Beencema] (Eterna round: R97, puzzle: Exclusion 6)	44.1	36	–	–
CCUCAUAUUUAGGAUAUGAUUGGUAAUUAUUAGUUAGAAGGAGAUACAUGAGGAUCACCCAUGUAAUAUUUAAA [-11.7, -11.3 kcal, 36% A] (Eterna round: R97, puzzle: Exclusion 6)	20.3	19.5	–	–
CCUCCACAUGAGGAUCACCCAUGUCAGGAUAUCGCGCGCGCGUUUUCGGUCUUUCGCGCGAGAAGGGACGACUG (puzzle: Exclusion 1)	–	–	29	–
CCUCCACAUGAGGAUCACCCAUGUCAGGAUAUCGUGUGUGCUUUUUCGGUCUUUCGUGCGAGAAGGGACGUCUG (puzzle: Exclusion 1)	–	–	25.5	–
CCUCCGGUAUAGGAUAUUUAUGAGCUCAGUUCUAAAGAAGGGUAUACAUGAGGAUCACCCAUGUGUGAAGUUAU [Eternabot (L2) Solution 20] (Eterna round: R97, puzzle: Exclusion 6)	52.5	49.9	–	–
CCUCGACAUGAGGAUCACCCAUGUCAGGAUAUUGUGUCUCGGGUUUUUUACCGUUAGGCAAGAAGGGAUGUGUG [LRO-Excl1-14] (puzzle: Exclusion 1)	–	–	19.7	–
CCUCGACGGUAGGAUAUCGUCAAACUAUUGUGAUGAGAAGGACUGACAUGAGGAUCACCCAUGUUAACGUGAUG [Exclusion 6 - 7:a] (puzzle: Exclusion 6)	–	–	14.8	–
CCUCGCCCUCUUGCACAUGAGGAUCACCCAUGUUUUACGUACUAGGAUAUAGCUAUGUUCAAUCGUUAGAAGGAGUUCAUGGAU [Eternabot solution 37] (Eterna round: R96, puzzle: Exclusion NG 3)	–	–	–	apparent KD of MS2 coat protein [1]: 77.4 nM
CCUCUACAUGAGGAUCACCCAUGUGAGGAUAUCUCGGAGCAGCCUAUUAAGGCGCUCCAGAGAAGGCACGUGUA [Dizasoorce] (puzzle: Exclusion 1)	–	–	17.9	–
CCUGGGUAAGGAUAUUUGAUUCCCUCCGGUUAGGGAGGAUGGAAGAAGGUACAUGAGGAUCACCCAUGUGUGGA [Eternabot (L1) Solution 67] (Eterna round: R97, puzzle: Exclusion 4)	94.7	97.8	–	–
CCUUAGUCAGGAUAUUGAGGUAAAAGAAAAGAAAACGACAGCAAGAAGGGACAUGAGGAUCACCCAUGUAUAAA [Bequxeain] (puzzle: Exclusion 4)	–	–	30.1	apparent KD of MS2 coat protein [3]: 24.4 nM; apparent KD of MS2 coat protein [4]: 16.2 nM
CGAUAAAAGACAGGAUAUGAGGAGAGAGAGAGAUCAGAAGGGUCACAUGAGGAUCACCCAUGUGAGUUCUCGAAAGGAAAGAGG [Prohibition 51 - Jieux - Exclusion NG 1] (Eterna round: R96, puzzle: Exclusion NG 1)	21.4	23	–	apparent KD of MS2 coat protein [1]: 15 nM
CGAUCACAUGAGGAUCACCCAUGUCAGGAUAUCGUCCAUAGGAAACAACCCUUCGAGGCGAGAAGGGACAAUCG [Eternabot (Original) Solution 29] (Eterna round: R97, puzzle: Exclusion 1)	46.9	31.1	–	–
CGAUGUAACACAGGAUAUCAUCGCAACUGACGUUGAGAAGGGUGACAUGAGGAUCACCCAUGUGAUUUCUCAAUAUUAUACAUC [Prohibition 82 - Jieux - Exclusion NG 1] (Eterna round: R96, puzzle: Exclusion NG 1)	715	1390	–	apparent KD of MS2 coat protein [1]: 830 nM
CGCAUGUGAGGAUAUUAGUAGUAGUCAGAAUAGACUAUUACUGAGAAGGUACAUGAGGAUCACCCAUGUAUGCG [Eli x4 4.22] (Eterna round: R97, puzzle: Exclusion 4)	38.9	21.5	–	–
CGCCCUGACGAAGGAUAUUAAGCUCAUACAUGAGGAUCACCCAUGUCCAUAGUAGUGUAUGCACCUGAGAAGGUCGUCAGCGCU [Eternabot solution 50] (Eterna round: R96, puzzle: Exclusion NG 2)	213	257	–	apparent KD of MS2 coat protein [1]: 240 nM
CGCGACUCAGGAUAUACAUGAGGAUCACCCAUGUGGAACUACUGGGUCGAUAAAAGGUGUAGAAGGGAGGAAAU [Veveesla] (puzzle: Exclusion 3)	–	–	10.5	apparent KD of MS2 coat protein [3]: 14.3 nM; apparent KD of MS2 coat protein [4]: 13.5 nM
CGGAACCAGACAGGAUAUACCUGUCCGAGACAGACACACAUGAGGAUCACCCAUGUUGAUGUCAGGUAGAAGGGUCAUAAAGAC [Eternabot solution 7] (Eterna round: R96, puzzle: Exclusion NG 2)	9.86	11.5	–	apparent KD of MS2 coat protein [1]: 10.3 nM
